In article PMC11757143, “Generation and characterization of OX40-ligand fusion protein that agonizes OX40 on T-Lymphocytes” (Frontiers in Immunology, 2025):

B1: Fc-scOX40L: Fusion protein: Fc, PA, single-chain OX40L trimer (three OX40L joined by GGGSGGG linkers), His6; dimer of trimers (protein)
chain: SSSPAKDPPIQRLRGAVTRCEDGQLFISSYKNEYQTMEVQNNSVVIKCDGLYIIYLKGSFFQEVKIDLHFREDHNPISIPMLNDGRRIVFTVVASLAFKDKVYLTVNAPDTLCEHLQINDGELIVVQLTPGYCAPEGSYHSTVNQVPLGGGSGGGSSSPAKDPPIQRLRGAVTRCEDGQLFISSYKNEYQTMEVQNNSVVIKCDGLYIIYLKGSFFQEVKIDLHFREDHNPISIPMLNDGRRIVFTVVASLAFKDKVYLTVNAPDTLCEHLQINDGELIVVQLTPGYCAPEGSYHSTVNQVPLGGGSGGGSSSPAKDPPIQRLRGAVTRCEDGQLFISSYKNEYQTMEVQNNSVVIKCDGLYIIYLKGSFFQEVKIDLHFREDHNPISIPMLNDGRRIVFTVVASLAFKDKVYLTVNAPDTLCEHLQINDGELIVVQLTPGYCAPEGSYHSTVNQVPL
modifications: left off: Fc (human IgG1: hinge, CH2, CH3), N-terminal, kept | PA tag (…), internal (between Fc and the first OX40L), kept | His6, C-terminal, kept
notes: Fusion protein: Fc, PA, single-chain OX40L trimer (three OX40L joined by GGGSGGG linkers), His6; dimer of trimers
B2: scOX40L-Fc: Fusion protein: OX40L, Linker, OX40L, Linker, OX40L, Fc, PA, and His6 (protein)
chain: SSSPAKDPPIQRLRGAVTRCEDGQLFISSYKNEYQTMEVQNNSVVIKCDGLYIIYLKGSFFQEVKIDLHFREDHNPISIPMLNDGRRIVFTVVASLAFKDKVYLTVNAPDTLCEHLQINDGELIVVQLTPGYCAPEGSYHSTVNQVPLGGGSGGGSSSPAKDPPIQRLRGAVTRCEDGQLFISSYKNEYQTMEVQNNSVVIKCDGLYIIYLKGSFFQEVKIDLHFREDHNPISIPMLNDGRRIVFTVVASLAFKDKVYLTVNAPDTLCEHLQINDGELIVVQLTPGYCAPEGSYHSTVNQVPLGGGSGGGSSSPAKDPPIQRLRGAVTRCEDGQLFISSYKNEYQTMEVQNNSVVIKCDGLYIIYLKGSFFQEVKIDLHFREDHNPISIPMLNDGRRIVFTVVASLAFKDKVYLTVNAPDTLCEHLQINDGELIVVQLTPGYCAPEGSYHSTVNQVPL
modifications: left off: Fc (human IgG1: hinge, CH2, CH3), C-terminal, kept | PA tag (…), C-terminal, kept | His6, C-terminal, kept

Key:
[1] = target: T1, OX40-Fc (Mus musculus, UniProt P47741); set-up: method as in PMID 36450532, PMID 37371066; conditions: previous studies; ref [23], [24]; cited from earlier work
T1 construct: made in house
T1 sequence (P47741 20-211 limits assumed): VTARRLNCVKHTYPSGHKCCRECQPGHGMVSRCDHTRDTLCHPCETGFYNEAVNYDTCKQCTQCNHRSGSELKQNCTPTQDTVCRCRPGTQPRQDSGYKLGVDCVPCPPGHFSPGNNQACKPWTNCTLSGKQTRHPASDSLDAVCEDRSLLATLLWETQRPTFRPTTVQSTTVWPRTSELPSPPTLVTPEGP

[2] = test system: antigen-specific T cell responses of draining lymph node cells; experiment: Antigen recall responses of dLN cells from TNP-KLH/CFA-immunized mice (cytokine ELISA, MTT proliferation); type: in vivo, C57BL/6 mice; conditions: for antigen-specific T cell responses (recall IFN-γ, IL-17, IL-4 production and proliferation of dLN cells): 20 µg i.p. on days 1 and 3, TNP-KLH/CFA day 0, dLN day 7, KLH recall 3 days
Description: The following reagents were used for the measurement of cytokines from T cells: anti-IL-2 (JES6-1A12, 503701, BioLegend, San Diego, CA, U.S.A.) capture antibody, biotin-anti-IL-2 (JES6-5H4, 503803, BioLegend) detection antibody, anti-IFN-γ (R4-6A2, 505702, BioLegend) capture antibody, biotin-anti-IFN-γ (XMG1.2, 505804, BioLegend) detection antibody, anti-IL-4 (11B11, 504101, BioLegend) capture antibody, biotin-anti-IL-4 (BVD6-24G2, 504201, BioLegend) detection antibody, anti-IL-17A (TC11-18H10.1, 506901, BioLegend) capture antibody, biotin-anti-IL-17A (TC11-8H4, 507001, BioLegend) detection antibody, HRP streptavidin (405210, BioLegend), and 3,3’,5,5’-tetramethylbenzidine (TMB, 421101, BioLegend). The absorbance was measured at 450 nm or 620 nm using a FilterMax F5 (Molecular Devices, San Jose, CA, U.S.A.).
Groups of C57BL/6 mice from both male and female mice aged between 5 and 15 weeks were immunized subcutaneously at the footpad with 100 µg of 2,4,6-trinitrophenyl-conjugated keyhole limpet hemocyanin (TNP-KLH) emulsified in complete Freund’s adjuvant (CFA) (F5881, Merck) on day 0. Recombinant proteins in PBS were injected intraperitoneally on days 1 and 3. On day 7, pooled dLN cells were plated in 200 µL volumes in 96-well plates in triplicate in the presence or absence of KLH. Cells were harvested at 18 hours for the AIM assay. Culture supernatants were harvested at 72 hours for cytokine ELISA. Cell viability on day 3 was assessed with a 3-(4,5-dimethylthiazol-2-yl)-2,5-diphenyl-tetrazolium (MTT) (M2128, Merck) assay.

[3] = test system: antigen-specific CD4+ T cells; experiment: Activation-induced marker (AIM) assay on dLN cells from TNP-KLH/CFA-immunized mice; type: in vivo, C57BL/6 mice; conditions: 20 µg i.p. on days 1 and 3, KLH 18 hours
Method: To perform the activation-induced marker (AIM) assay, a valuable method to detect antigen-specific CD4^+ T cells ([29], [30]), draining lymph node (dLN) cells were initially incubated with IgG from rat serum (14131, Merck) to block nonspecific binding. The following antibodies were used for cell-surface staining: PE/Cyanine7 anti-mouse CD4 (GK1.5, 100421, BioLegend), Alexa Fluor® 488 anti-mouse CD25 (PC61, 102018, BioLegend), and APC anti-mouse CD134 (OX-40) (OX-86, 119413, BioLegend). For Foxp3 staining, cells were fixed and permeabilized with the eBioscience™ Foxp3/Transcription Factor Staining Buffer Set (00-5523-00, Thermo Fisher), then stained with PE Anti-Mo/Ra FOXP3, eBioscience™ (FJK-16s, 12-5773-08, Thermo Fisher). Data were acquired on a FACS Canto II or a Celesta (BD Biosciences, Franklin Lakes, NJ, U.S.A.) and analyzed with BD FACS Diva software version 9 or Flowing software version 2 (Turku Bioscience, Turku, Finland, http://flowingsoftware.btk.fi/).
Groups of C57BL/6 mice from both male and female mice aged between 5 and 15 weeks were immunized subcutaneously at the footpad with 100 µg of 2,4,6-trinitrophenyl-conjugated keyhole limpet hemocyanin (TNP-KLH) emulsified in complete Freund’s adjuvant (CFA) (F5881, Merck) on day 0. […] Cell viability on day 3 was assessed with a 3-(4,5-dimethylthiazol-2-yl)-2,5-diphenyl-tetrazolium (MTT) (M2128, Merck) assay.

Molecule | specific interaction with OX40 [1] | antigen-specific T cell responses (recall IFN-γ, IL-17, IL-4 production and proliferation of dLN cells) [2] | induction of IL-4-producing cells ([2]; TNP-KLH/CFA-immunized mice, Figures 7, 9) | frequency of OX40+CD25+Foxp3+CD4+ cells (AIM assay) [3] | frequency of OX40+CD25+Foxp3-CD4+ cells (AIM assay) ([3]; compared to control (PBS) or OX86)
B1 | specifically interact with OX40 | elicited stronger antigen-specific T cell responses than Fc-MBL-OX40L (B) and scOX40L-Fc (D) | promoted the induction of IL-4-producing cells | significantly enhanced frequency | significantly increased frequency
B2 | – | triggered significantly higher T cell responses compared to the None (PBS) control group | – | – | –
